Assay results reported in the supplement of paper PMC12042874.
± gives the uncertainty stated by the source.

Assay: amyloid nucleation score (Sup35N fusion, yeast selection) (log enrichment); library NNK2; higher = more nucleation; inactive = no reads after selection
Procedure, shortened: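 Growth for 7 days at 30°C on medium lacking adenine and uracil followed a 24-hour induction with 100 μM copper sulfate of psi-negative yeast expressing peptides of 20 random codons fused to Sup35N. Input and output plasmid inserts were sequenced with Illumina, and sequences with under 100 input reads were excluded. Nucleation score is the DiMSum log enrichment of output over input reads, centred on the mode score of non-aggregating sequences.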

Substance | amyloid nucleation score
RYHVRMKISCRF | 2.74 ± 0.11
IKTGSGVARVGYFLC | 0.42 ± 0.47
YVYKCLQSQFFNALVTMISL | inactive
VFLKQVEPEGGQYETFLVVV | -0.19 ± 1.1
LYYAQSANRRLSGAWRFLF | -0.281 ± 0.79
IVVVLWTFFDG | -1.09 ± 0.55
FPCSVRVTLTYLFMYEPVRP | 0.076 ± 0.2
VDFIKIKRIGPER | -0.709 ± 0.38
YIRLHYGGVRRKVFTTILVI | -0.26 ± 0.45
NTALSGDCVRCPSAYEWVKV | 3.25 ± 0.11
LEVCFWFRNSVTKVSMSACL | -1.06 ± 0.63
ASCMS | -0.056 ± 0.32
KWIRFWVKDAFRVGRCHIWG | 0.038 ± 0.5
DRLVSLAYLMWFGKMGWDKG | 0.05 ± 0.51
RFDQGVGTLWHVSLVTE | -0.107 ± 1
VWVVCEFLAVVPKTKIFRTD | 0.721 ± 0.66
SISVLYNLRLLCIYNIVVYR | inactive
PFMCRLIYSELNDYIIELDE | -0.081 ± 0.5
RVLFHSSFGRGLVCEISVHV | -1.01 ± 0.62
YNPVPFL | -0.788 ± 0.39
ICCWEMCLGSFFR | 0.287 ± 0.65
TNLQSVRYVAHTF | 3.96 ± 0.068

Substance | amyloid nucleation score
KAEHVFFVYRGLTEVFASGL | inactive
LTRGTFRIQCTLTSAWRVAR | 4.62 ± 0.11
YWQYCVDANFKQLMQRGKVF | 0.728 ± 0.62
YSLLILAPDFLNRHSSLGCI | -0.226 ± 1.1
QLGRYLCHTIFKHRLYICTW | 0.113 ± 1.1
STRSGGLKQSVPLSRPP | -0.325 ± 0.42
MSTLRRLRSRNRRFVNFVWG | -0.019 ± 0.33
IVCPKSGNAVVYGLMTMNNK | 0.329 ± 0.62
CVKKEIMLFAFDALKSLLGR | -0.742 ± 1.1
VNCCDFVVC | -0.063 ± 0.49
GLSIGYSKWETALGITLSNP | -0.864 ± 0.78
CRVFWKLKKRSIMHLPFDSG | 1.32 ± 0.34
CAVRF | 0.498 ± 0.64
LWVARHIRIEFMLTFRIYKA | 0.011 ± 1.1
VYIFQGMR | -0.302 ± 0.46
RLVNASEGGMHWANSSEFYA | 0.643 ± 0.24
SCFIFSCYDTSLQMLVFAVG | -0.591 ± 0.63
SIGKYLCYA | 2.38 ± 0.057
TWWIELVKLGEMVVK | 0.313 ± 0.65
DKSAVMVFNRRYVPWFGIRY | inactive
NNKYWWDVLYYNSTLLARVN | -0.225 ± 0.48
WLASPGDSSFMCLNVVVAAV | 0.723 ± 0.5

Substance | amyloid nucleation score
FVGCYNSRK | 2.4 ± 0.08
NLDDEL | 0.422 ± 0.43
IKSVFMCYWGLDAVGVTAER | 8.785 ± 0.047
TGLVVDCLAYRDCSVKQDRA | 0.582 ± 0.34
YIGEFGFILIPLRSFSPIPC | inactive
KRFGNFMTLRTLRVT | 1.42 ± 0.14
VLGKFVEPGMAGLSVTPFRM | 0.829 ± 0.57
RQSKARLYCR | 0.397 ± 0.3
PKIKHMMAWVMFVAFKVCSC | -0.063 ± 0.29
GRVVSSFSLKSDNFMMYFRI | -1.18 ± 1.1
CREEDGLLDVSYKRSDMGGS | -0.267 ± 0.65
ESSIRHRGMERRCRLHKRH | 0.546 ± 0.39
FPSVLSFWKTMSVCGDHPYP | -0.686 ± 0.3
MGTPTTEIGALTMGSEPFV | 1.24 ± 0.39
LSRSRVINIYASAGWRFLGS | inactive
HLGRYAVKMCYWKGLFFYNN | 0.29 ± 0.74
RNCACCEWL | 4.58 ± 0.052
LFYWLITENASNQTTMSVRE | -0.384 ± 0.54
IPAKGRNSHSVSCFF | -1.07 ± 0.63
GFWVWMWPRSHCAGGPSLDL | 1.13 ± 0.4
HCYSPSKIRVNAIFLHIFL | inactive
VWSSMSFTSLFVIISLSNYS | 2.88 ± 0.13

Substance | amyloid nucleation score
ARMIVCPTVFAIPWYNNSFI | -1.47 ± 0.78
SMLFRIRSLNVCSFAGLMRQ | 2.37 ± 0.1
KSKRMVTMHKMNENTGLLGD | 0.543 ± 0.5
TCILMLCQECVCTF | 9.809 ± 0.051
FYINTYQVSQGFIA | inactive
CYRNAT | 0.475 ± 0.2
QLFHAWTTWPSGDHNIAWRY | 3.3 ± 0.14
SALHLYGFFLRFFERSSVIL | -0.608 ± 0.76
NRGTEWISGECRYHWQDVRQ | 0.109 ± 0.21
WKVSLGWNSHMCAGMETLWM | 4.18 ± 0.048
CRFRGLRYNRWDQNDVFAGV | 0.349 ± 0.44
ANDSSNYEYVILMRPNVIEV | -0.14 ± 0.49
LGTVRYLS | 0.399 ± 0.41
KDRDNVTGNSVVVRLRRRVL | -0.296 ± 0.54
IVGAIRSKILGTGQTRVIWG | 0.477 ± 0.65
CLFVQSRIDYALNNLTVC | -0.755 ± 0.48
YIIGNVRNVRLWFRLSMNEV | inactive
RLLAIRIVILYSINCVLSLW | 0.129 ± 0.42
LLKLTYTSM | 7.032 ± 0.037
NSVFRTDCGKRGMVVPGRAH | 1.04 ± 0.35
